Values of other authors as cited in patent publication US20070140974A1, “Targeted nanoparticles for magnetic resonance imaging” (General Electric Company, priority 2005, published 2007).

Tests used:
[1] = room temperature, 1.5 Tesla magnetic field
[2] = molecular target: uPAR (Homo sapiens, UniProt Q03405)
Sequence of uPAR (Q03405 23-305): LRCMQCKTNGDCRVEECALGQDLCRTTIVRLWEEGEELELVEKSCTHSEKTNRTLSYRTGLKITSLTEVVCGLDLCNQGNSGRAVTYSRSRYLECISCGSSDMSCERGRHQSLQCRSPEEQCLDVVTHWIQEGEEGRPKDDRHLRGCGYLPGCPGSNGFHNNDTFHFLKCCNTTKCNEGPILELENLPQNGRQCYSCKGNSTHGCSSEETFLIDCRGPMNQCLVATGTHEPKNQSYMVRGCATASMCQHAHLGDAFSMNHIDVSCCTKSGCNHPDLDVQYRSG

| R1 relaxivity [1] [mM⁻¹ s⁻¹] | Compound | binding of uPAR and inhibition of integrin or vitronectin binding [2] |
| --- | --- | --- |
| 3 | O=C([O-])CN(CCN(CC(=O)[O-])CC(=O)O)CCN(CC(=O)[O-])CC(=O)O.[Gd+3] [Gd-DTPA] | – |
| – | AEFFKLGPNGYVYLHSA | capable of binding uPAR and inhibiting binding of vitronectin |
| – | AELDLSTFYDIQYLLRT | capable of binding uPAR and inhibiting binding of vitronectin |
| – | AEPVYQYELDSYLRSYY | capable of binding uPAR and inhibiting binding of vitronectin |
| – | AESTYHHLSLGYMYTLN | capable of binding uPAR and inhibiting binding of integrin |
